According to article PMC4754705:

Biological target: Envy
Assay: SEC; gel filtration on a Superdex 200 column; 100 μL of 10 μM purified protein loaded, flow rate 0.5 ml/min, elution monitored by absorbance at 280 nm; self-association (monomer or dimer)

## Envy
  stoichiometry N: 2
